Measured values: paper PMC10234635

Target: recombinant mouse CD47 antigen (mouse) (UniProt Q61735)
Assay: SPR

Sequence of UniProt Q61735 (Q61735 19-303): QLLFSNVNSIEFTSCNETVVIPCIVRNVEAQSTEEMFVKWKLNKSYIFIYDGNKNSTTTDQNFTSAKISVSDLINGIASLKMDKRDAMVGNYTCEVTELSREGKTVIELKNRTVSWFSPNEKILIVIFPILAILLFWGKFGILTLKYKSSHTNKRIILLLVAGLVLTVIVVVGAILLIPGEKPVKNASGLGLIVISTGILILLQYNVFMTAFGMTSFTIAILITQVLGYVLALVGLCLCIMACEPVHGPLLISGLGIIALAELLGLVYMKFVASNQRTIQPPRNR

fold lower affinity than its affinity to CTLA-4: 10 fold
fold reduction in affinity against SIRPα-Fc: 5 fold
B1: anti–CTLA-4×SIRPα heterodimer (bispecific antibody, V domains shown)
VH: QVKLEESGPGLVNPSQSLSLSCSVTGYSITSGYGWNWIRQFPGQKVEWMGFIYYEGSTYYNPSIKSRISITRDTSKNQFFLQVNSVTTEDTATYYCARQTGYFDYWGQGTMVTVSS
VL: DVMMTQSPSSMSVSAGEKATISCKSSQSLFNSNAKTNYLNWYMQKPGQSPKLLTYYASTRHTGVPDRFRGSGSGTDFTLTISSVQDEDQAFYYCQQWYDYPYTFGAGTKLEIK
